Values quoted from earlier work in article PMC4643947.
Like-named read-outs stand apart in the source and are kept apart here.

Columns and labels:
[1] = target: Nrf2 14mer peptide (Homo sapiens)
[2] = target: Nrf2 10mer peptide (Homo sapiens)
[3] = target: p62 (Homo sapiens) (UniProt Q13501)
[4] = target: p62 (Homo sapiens) (UniProt Q13501); remark: listed apart in the source

For Keap1 (from UniProt Q14145), the Kd [1] is given as 0.0619 µM, the Kd [2] is given as 0.0301 µM and the Kd [3] is given as 0.118 µM. The Kd [4] was 2 µM.
